Reference: PMC3470471 (Circulation research, 2012)

Target: the molecule itself
Assay: cross-linking

B1: myosin light chain 1 (rat cardiac myofibrils) (natural protein)
chain: not shown
Q: Which “stoichiometry N” value does the source give for B1 here?
A: 2
